From publication PMC2841647 (PLoS ONE, 2010) come the findings set out here.

One assay concerns the target T1, human TrkB receptor (Homo sapiens, UniProt Q16620).
T1 construct: expressed in transfected cells
Kind of assay: KIRA-ELISA (TrkB tyrosine phosphorylation) in TetOn-rhTrkB CHO cells. The format is cell-based. Conditions: TetOn-rhTrkB cells, with or without 4 nM BDNF. From the text: (§1) The human recombinant TrkB receptor was fluorescently tagged at its C-terminus with the Enhanced cyan fluorescent protein (rhTrkB-ECFP) by cloning the full human TrkB sequence (kindly provided by G. M. Brodeur) into the pECFP-N1 expression vector (Clontech). For inducible expression, rhTrkB-ECFP was subcloned into the tetracycline-responsive (TetOn) vector pTRE2 (Clontech). Chinese Hamster Ovary cells stably expressing rhTrkB-ECFP (TetOn-rhTrkB cells), were produced by transfection of the pTRE2-rhTrkB-ECFP plasmid into CHO-K1 TetOn cells (Clontech) followed by clone selection in 0.25 mg/ml hygromycin B (Invitrogen) and 0.1 mg/ml geneticin (G418; Invitrogen). Resistant cells were selected based on both fluorescence intensity and KIRA-ELISA profile after an overnight incubation in presence of 1000 ng/ml doxycycline (Clontech). Cortical neurons were prepared and cultured from E16 mouse embryos as described previously. The nnr5 PC12-TrkA, nnr5 PC12-TrkB and nnr5 PC12-TrkC cells (kindly provided by M. V. Chao) are NGF non-responding mutant PC12 cells stably transfected with TrkA, TrkB and TrkC cDNA, respectively.
(§2) TrkB activity was quantified using the previously described KIRA-ELISA assay with slight modifications. Cortical neurons were seeded on polyornithin-coated flat-bottom 96-well culture plates (12×10^4 cells per well) and cultured eight days at 37°C in 5% CO2. TetOn-rhTrkB cells were seeded on flat-bottom 96-well culture plates (4×10^4 cells per well) and incubated overnight with 1000 ng/ml doxycycline (Figs. S1,S2) except when indicated. Fluorescence levels in TetOn-rhTrkB cells were verified before each assay. […] Assay was stopped by removing the medium on ice and membranes were solubilized using KIRA-ELISA solubilization buffer (NaCl 150 mM, Hepes 50 mM, Triton X-100 0.5%, thimerosal 0.01%, sodium orthovanadate 2 mM, supplemented with a cocktail of protease inhibitors) for 1 h at room temperature. Solubilized membranes were transferred for 2 h at room temperature onto ELISA microtiter plate (Nunc Maxisorp) pre-coated overnight at 4°C with appropriate antibodies [polyclonal anti-GFP (1∶5000, Clontech) for TetOn-rhTrkB, polyclonal anti-TrkB (1 µg/ml, Upstate) for cultured neurons and brain slices, for phosphorylation assays; monoclonal anti-GFP (1∶3000, Chemicon) for TetOn-rhTrkB, monoclonal anti-TrkB (1∶1000, BD Biosciences) for cultured neurons and brain slices, for total TrkB quantification]. […] Absorbance was read at 450 nm after addition of 3,3′,5′,5-tetramethyl-benzidine substrate (Sigma) and acidification with 1N hydrochloric acid.
(§3) Concentration-response and competition curves were obtained using an iterative least-squares method derived from that of Parker & Waud (1971). […] Concentration-response curves and Eadie-Hofstee plots were analyzed using two-way ANOVA. Significance over time in locomotor activity studies was given using two-way ANOVA followed by Bonferroni's post-hoc test. […] One-way ANOVA followed by post-hoc Dunnett's test was used to evaluate statistical significance compare to saline group in EPM and FST procedures. n represents the number of independent experiments.
On the technique in general: ELISA stands for enzyme-linked immunosorbent assay.

Assay [1] addresses T2, native TrkB receptors in cortical neurons (Mus musculus, UniProt P15209).
T2 construct: cortical neurons naturally express TrkB receptors; endogenous in cells; host or cells: primary cortical neurons from E16 mouse embryos
Kind of assay: KIRA-ELISA (TrkB tyrosine phosphorylation) in primary cortical neurons. In kind it is cell-based. Particulars: cortical neurons, with or without 4 nM BDNF.
Description: as §1, §2, §3

The next assay deals with T3, brain TrkB receptors (Mus musculus, UniProt P15209).
T3 construct: KIRA-ELISA analysis of brain TrkB receptors from mice; from tissue; host or cells: adult Swiss mouse brain, 300-µm coronal slices
T3 sequence (P15209 32-821): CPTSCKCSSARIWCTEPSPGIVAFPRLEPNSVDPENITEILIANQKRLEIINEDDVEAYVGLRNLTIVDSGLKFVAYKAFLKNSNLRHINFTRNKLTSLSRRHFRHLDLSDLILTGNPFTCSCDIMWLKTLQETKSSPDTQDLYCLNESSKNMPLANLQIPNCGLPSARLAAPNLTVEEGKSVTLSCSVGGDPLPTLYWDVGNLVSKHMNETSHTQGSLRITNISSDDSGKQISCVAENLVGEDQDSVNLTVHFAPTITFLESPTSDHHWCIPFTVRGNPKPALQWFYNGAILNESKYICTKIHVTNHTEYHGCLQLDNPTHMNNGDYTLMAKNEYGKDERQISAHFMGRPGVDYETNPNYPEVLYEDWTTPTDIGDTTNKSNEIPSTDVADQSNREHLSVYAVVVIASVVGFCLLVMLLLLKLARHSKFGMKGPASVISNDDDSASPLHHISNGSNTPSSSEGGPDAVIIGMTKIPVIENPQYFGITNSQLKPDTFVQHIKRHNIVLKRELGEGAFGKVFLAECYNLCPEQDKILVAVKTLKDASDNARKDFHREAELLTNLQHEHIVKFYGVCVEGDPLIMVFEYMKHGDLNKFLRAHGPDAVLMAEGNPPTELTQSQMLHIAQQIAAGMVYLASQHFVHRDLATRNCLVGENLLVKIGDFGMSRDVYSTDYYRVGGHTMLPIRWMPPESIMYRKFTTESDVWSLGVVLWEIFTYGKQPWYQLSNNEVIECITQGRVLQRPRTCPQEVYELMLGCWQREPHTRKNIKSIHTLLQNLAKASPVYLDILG
Kind of assay: In vivo KIRA-ELISA analysis after intravenous injection. Conditions: mice, i.v. 2×200 µg, 90-min interval. How it is done:
Adult Swiss mice (20–25 g) received a double 90-min-interval i.v. injection of saline buffer, tat-cyclotraxin-B (2×200 µg) or tat-empty (2×200 µg). Three hours after the first injection, mice were decapitated, brains quickly removed on ice, 300-µm coronal sections were prepared with a vibratome at three levels (bregma 0.90 mm: caudate putamen/nucleus accumbens level; bregma −1.60 mm: dorsal hippocampus level; bregma −2.70 mm: ventral hippocampus level, see SI Fig. 8A ) and placed in a holding chamber for one hour. Slices were then incubated in Ringer's solution supplemented with tat-cyclotraxin-B or tat-empty (1 µM) in holding chamber saturated with 95% O2, 5% CO2. […] Experiments were stopped by quick removing of the medium on ice. […] Protein concentrations were determined and equal amounts of proteins were loaded in each well for KIRA-ELISA assays (see above). The following antibodies combination was used for phosphorylation assays: TrkB capture with polyclonal anti-TrkB (1 µg/ml); tyrosine phosphorylation quantification with biotinylated anti-phosphotyrosine (4G10, 0.5 µg/ml) and a streptavidin-peroxydase system (1∶4000). The following combination was used for total TrkB quantification: TrkB capture with monoclonal anti-TrkB (1∶1000); total TrkB quantification with polyclonal anti-TrkB (1 µg/ml). Absorbance at 450 nm was read after addition of TMB and acidification. […]

T2 sequence (P15209 32-821): as above
T1 sequence (Q16620 32-822): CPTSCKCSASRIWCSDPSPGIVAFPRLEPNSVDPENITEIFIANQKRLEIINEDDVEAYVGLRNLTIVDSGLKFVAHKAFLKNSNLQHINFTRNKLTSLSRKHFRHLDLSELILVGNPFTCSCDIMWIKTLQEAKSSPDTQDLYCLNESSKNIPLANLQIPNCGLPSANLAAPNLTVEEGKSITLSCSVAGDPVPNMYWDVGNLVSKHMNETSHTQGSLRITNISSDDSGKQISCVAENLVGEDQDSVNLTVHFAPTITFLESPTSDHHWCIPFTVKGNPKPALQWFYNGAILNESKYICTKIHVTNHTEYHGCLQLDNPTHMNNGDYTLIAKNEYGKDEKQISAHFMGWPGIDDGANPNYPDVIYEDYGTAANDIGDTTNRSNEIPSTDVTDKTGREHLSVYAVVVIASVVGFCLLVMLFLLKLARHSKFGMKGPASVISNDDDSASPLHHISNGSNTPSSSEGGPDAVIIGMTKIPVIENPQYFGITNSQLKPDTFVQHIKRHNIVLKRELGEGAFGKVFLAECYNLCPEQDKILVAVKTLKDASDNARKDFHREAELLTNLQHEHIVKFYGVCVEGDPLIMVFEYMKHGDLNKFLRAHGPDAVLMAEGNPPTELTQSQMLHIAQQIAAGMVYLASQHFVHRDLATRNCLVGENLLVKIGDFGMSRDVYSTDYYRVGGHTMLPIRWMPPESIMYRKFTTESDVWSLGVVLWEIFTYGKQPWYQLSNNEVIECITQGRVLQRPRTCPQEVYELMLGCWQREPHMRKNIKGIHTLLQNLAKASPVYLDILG

As to “YGRKKRRQRRRCNPMGYTKEGC [tat-cyclotraxin-B]”, the “TrkB inhibition compared with cyclotraxin-B” value (with human TrkB receptor; in assay [1]) was “similarly to cyclotraxin-B” in each case. Moreover, the “decrease in TrkB activity, injection” value in the assay with brain TrkB receptors was 50.9±3.1%.
